Publication PMC7277749, “Evaluation of Aptamers as Affinity Reagents for an Enhancement of SRM-Based Detection of Low-Abundance Proteins in Blood Plasma”

Molecular target: SMAD4 (rSMAD4) (UniProt Q13485 1-552)
Test: MST; 100 nM aptamer; FAM label inferred for MST; MST: 20 mM Tris-HCl pH 7.4, 5 mM KCl, 500 mM NaCl, temperature not stated; pull-down: plasma diluted twice with 10 mM Tris-HCl pH 7.4, 150 mM NaCl plus 0.85 M NaCl, RT, 30 min
Settings: protein: recombinant; tags: N-terminal His6; label: 3'-FAM; hairpin, 16 bp stem, TTTT loop, 3' A5 tail

Chain of SMAD4 (rSMAD4) (Q13485 whole entry): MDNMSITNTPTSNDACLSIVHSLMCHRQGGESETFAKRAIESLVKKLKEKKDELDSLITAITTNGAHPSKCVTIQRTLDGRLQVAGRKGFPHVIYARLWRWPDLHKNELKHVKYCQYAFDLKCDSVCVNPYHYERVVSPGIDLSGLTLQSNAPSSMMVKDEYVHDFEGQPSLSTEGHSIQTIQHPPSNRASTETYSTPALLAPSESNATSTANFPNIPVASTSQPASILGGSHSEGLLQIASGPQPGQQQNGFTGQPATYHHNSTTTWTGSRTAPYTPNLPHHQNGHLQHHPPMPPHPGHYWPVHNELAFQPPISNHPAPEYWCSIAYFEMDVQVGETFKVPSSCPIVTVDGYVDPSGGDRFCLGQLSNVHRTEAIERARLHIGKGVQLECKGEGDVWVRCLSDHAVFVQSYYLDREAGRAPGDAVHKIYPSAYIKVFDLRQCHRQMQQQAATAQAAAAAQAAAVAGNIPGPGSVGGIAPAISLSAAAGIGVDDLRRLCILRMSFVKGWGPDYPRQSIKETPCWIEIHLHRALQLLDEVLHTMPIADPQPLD

CGAAGTCTAGACAGCGTTTTCGCTGTCTAGACTTCGAAAAA (structured_DNA) [Anti-SMAD4 aptamer, 3'-FAM] was tested, and the Kd was 45 ± 7 nM.
